Drawing on patent US20230192853A1, this text covers share of events in Q2 (CD3 positive, mAb/VHH AF647 positive) and share of events in Q3 (CD3 negative, mAb/VHH AF647 positive) for 1 molecule.

The target in this experiment is human CD8 on cells (HPBALL cells, TALL1 cells, CD8+ T cells of human whole blood and PBMCs) (human) (UniProt P01732). The experiment in a line: flow cytometry of human whole blood, AF647-labeled OKT8 at 20 ng/mL against CD3 APC-Vio770.
Chain of human CD8 on cells (HPBALL cells, TALL1 cells, CD8+ T cells of human whole blood and PBMCs) (human) (P01732 22-234 limits assumed): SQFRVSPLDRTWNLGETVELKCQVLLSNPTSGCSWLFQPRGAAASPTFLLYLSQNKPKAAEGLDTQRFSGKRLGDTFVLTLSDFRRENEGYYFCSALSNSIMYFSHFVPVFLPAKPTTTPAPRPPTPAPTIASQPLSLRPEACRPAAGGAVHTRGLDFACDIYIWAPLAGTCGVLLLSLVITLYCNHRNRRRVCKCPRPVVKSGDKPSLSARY

B1: OKT8 anti-CD8 IgG labeled with ALEXA FLUOR 647 (antibody, from another filing, V domains shown)
VH: EVQLQQSGAELVKPGASVKLSCTASGFNIKDTYIHFVRQRPEQGLEWIGRIDPANDNTLYASKFQGKATITADTSSNTAYMHLCSLTSGDTAVYYCGRGYGYYVFDHWGQGTTLTVSS
VL: DVQINQSPSFLAASPGETITINCRTSRSISQYLAWYQEKPGKTNKLLIYSGSTLQSGIPSRFSGSGSGTDFTLTISGLEPEDFAMYYCQQHNENPLTFGAGTKLELK
B1 came in with a share of events in Q2 (CD3 positive, mAb/VHH AF647 positive) of 19.7% and a share of events in Q3 (CD3 negative, mAb/VHH AF647 positive) of 0.73%.
